# B1: Proteinase K: Proteinase K (Sigma-Aldrich Co.) (protein, UniProt P06873 106-384, looked up)
# Proteinase K: AAQTNAPWGLARISSTSPGTSTYYYDESAGQGSCVYVIDTGIEASHPEFEGRAQMVKTYYYSSRDGNGHGTHCAGTVGSRTYGVAKKTQLFGVKVLDDNGSGQYSTIIAGMDFVASDKNNRNCPKGVVASLSLGGGYSSSVNSAAARLQSSGVMVAVAAGNNNADARNYSPASEPSVCTVGASDRYDRRSSFSNYGSVLDIFGPGTSILSTWIGGSTRSISGTSMATPHVAGLAAYLMTLGKTTAASACRYIADTANKGDLSNIPFGTVNLLAYNNYQA
# Test system: K562 cells
# Assay: AAV6 transduction of K562 cells after enzyme / inhibitor treatment
# Format: cell-based, human
# Description: More recently, Denard et al. reported that galectin-3-binding protein in human sera agglutinates AAV6 vectors, which results in decreased transduction efficiency of these vectors. […] The identity of the putative receptor for AAV6 vectors in human CD34^+ cells remains elusive, and additional studies are warranted. […] The implication is that AAV6 uses a protein rather than a lipid on K562 cells for binding and entry into these cells. In addition, because AAV6 is known to have evolved from recombination between AAV1 and AAV2, and because AAV2 uses heparan sulfateproteoglycan (HSPG) as the primary cellular receptor, the level of HSPG expression on K562 cells surface was examined by FACS. […] The effect of inhibitors of O-linked and N-linked glycosylation was also evaluated on the transduction efficiency of AAV6 vectors in K562 cells.
molecule,measurement,value
B1,effect on AAV6 vector-mediated transduction of K562 cells,dramatically decrease

# Reference: patent US12358954B2, “Capsid-modified rAAV vector compositions and methods therefor” (priority 2012, dated 2025)
